# Data: PMC11203266, “Continuous evolution of compact protein degradation tags regulated by selective molecular glues” (Science (New York, N.Y.), 2024)
# Key:
# [1] = biological target: DDB1^ΔBPB•CRBN complex (tags cleaved, for BLI) (human) (UniProt Q96SW2); test: BLI; pomalidomide
# [2] = biological target: two-zinc finger construct containing SD0, MBP–Avi–His fusion, biotinylated (UniProt Q13422); test: FRET; pomalidomide titration (compound EC50 of ternary complex formation)
# [3] = biological target: two-zinc finger construct containing SD0, MBP–Avi–His fusion, biotinylated (UniProt Q13422); test: FRET; saturating pomalidomide; conditions: complex
# Chain of DDB1^ΔBPB•CRBN complex (tags cleaved, for BLI) (human) (Q96SW2 whole entry, stated change not applied, chain 1 of 2, the tested form may be a part): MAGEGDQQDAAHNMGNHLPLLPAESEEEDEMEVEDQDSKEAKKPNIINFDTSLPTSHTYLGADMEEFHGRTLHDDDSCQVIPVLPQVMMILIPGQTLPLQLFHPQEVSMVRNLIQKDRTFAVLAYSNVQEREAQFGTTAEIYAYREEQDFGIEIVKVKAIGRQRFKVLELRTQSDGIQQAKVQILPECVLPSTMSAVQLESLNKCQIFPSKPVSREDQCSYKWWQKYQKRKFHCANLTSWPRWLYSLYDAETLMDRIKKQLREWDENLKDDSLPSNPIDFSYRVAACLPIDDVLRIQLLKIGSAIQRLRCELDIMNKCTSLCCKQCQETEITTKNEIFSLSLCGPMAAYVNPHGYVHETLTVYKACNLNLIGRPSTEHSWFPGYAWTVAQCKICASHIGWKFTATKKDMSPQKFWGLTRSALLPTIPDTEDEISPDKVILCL
# Chain of DDB1^ΔBPB•CRBN complex (tags cleaved, for BLI) (human) (Q16531 other isoform, or with tags, fused parts or gaps mutant, chain 2 of 2, further chain): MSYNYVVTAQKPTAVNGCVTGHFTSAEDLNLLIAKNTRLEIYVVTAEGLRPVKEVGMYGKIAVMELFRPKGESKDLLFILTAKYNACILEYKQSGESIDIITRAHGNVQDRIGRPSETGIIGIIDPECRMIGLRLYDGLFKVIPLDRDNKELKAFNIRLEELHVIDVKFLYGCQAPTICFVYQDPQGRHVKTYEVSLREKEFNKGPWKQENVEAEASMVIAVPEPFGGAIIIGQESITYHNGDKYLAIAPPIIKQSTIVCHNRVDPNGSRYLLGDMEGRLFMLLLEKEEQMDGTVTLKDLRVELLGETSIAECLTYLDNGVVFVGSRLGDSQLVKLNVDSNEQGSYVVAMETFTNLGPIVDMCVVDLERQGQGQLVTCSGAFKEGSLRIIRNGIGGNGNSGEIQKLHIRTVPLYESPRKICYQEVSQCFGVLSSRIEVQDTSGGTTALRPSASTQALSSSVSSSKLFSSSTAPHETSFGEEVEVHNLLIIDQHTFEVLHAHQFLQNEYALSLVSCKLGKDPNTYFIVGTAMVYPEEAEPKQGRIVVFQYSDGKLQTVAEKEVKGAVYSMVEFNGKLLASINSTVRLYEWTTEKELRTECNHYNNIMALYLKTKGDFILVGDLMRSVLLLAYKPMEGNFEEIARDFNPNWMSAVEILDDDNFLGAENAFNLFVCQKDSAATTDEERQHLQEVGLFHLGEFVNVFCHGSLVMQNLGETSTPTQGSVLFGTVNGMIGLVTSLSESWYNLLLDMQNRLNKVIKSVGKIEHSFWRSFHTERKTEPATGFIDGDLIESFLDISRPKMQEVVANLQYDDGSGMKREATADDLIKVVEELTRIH
# Chain of two-zinc finger construct containing SD0, MBP–Avi–His fusion, biotinylated (Q13422 other isoform, or with tags, fused parts or gaps): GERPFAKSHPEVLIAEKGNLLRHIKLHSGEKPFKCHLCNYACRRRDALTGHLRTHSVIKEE
Kd [1] [µM],koff [1] [s⁻¹],EC50 [2] [µM],Kd [3] [µM],Substance
0.245,0.071,,,"two-zinc finger construct containing SD0, MBP–Avi–His fusion, biotinylated (from UniProt Q13422 141-145; Q96JP5 450-460; Q13422 157-243)"
,,0.314,0.212,CRBN–eGFP•DDB1^ΔBPB (from UniProt Q96SW2 1-442; Q16531 1-395; Q16531 706-1140)
